To fix the notation:
B1: THAP1; numbered along this chain (parent)
chain: MVQSCSAYGCKNRYDKDKPVSFHKFPLTRPSLCKEWEAAVRRKNFKPTKYSSICSEHFTPDCFKRECNNKLLKENAVPTIFLCTEPHDKKEDLLEPQEQLPPPPLPPPVSQVDAAIGLLMPPLQTPVNLSVFCDHNYTVEDTMHQRKRIHQLEQQVEKLRKKLKTAQQRCRRQERQLEKLKEVVHFQKEKDDVSERGYVILPNDYFEIVEVPA

Variants of B1 are the subject of the data set. As to the kind of experiment: THAP1 transcriptional activity (GFP+/GFP- enrichment relative to wild-type constructs) (ratio to WT); higher = more THAP1 activity (PSMB5 reporter activation). The conditions noted are these: with PSMB5 promoter-GFP reporter. The procedure: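 Deep mutational scan of human THAP1. Site-saturation single amino acid variant library (residues 2-213) was expressed by lentivirus at MOI ~0.3 in THAP1-knockout HEK-293T cells carrying an endogenous PSMB5 promoter-GFP knock-in reporter. Five days post-transduction, BFP+ cells were FACS-sorted into GFP dim and GFP bright populations and variants were counted by Illumina sequencing. Activity is the GFP-bright/GFP-dim read fold change, mean of 2 replicates, divided by the mean fold change of wild-type (synonymous) constructs in the same screen pool; WT = 1.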
For MVQSCSAYGCKNRYDKDKPVSFHKFPLTRPSLCKEWEAAVRRKNFKPTKYSSICSEHFTPDCFKRECNNKLLKENAVPTIFLCTEPHDKKEDLLEPQEQLPPPPLPPPVSQVDAAIGLLMPPLQTPVNLSVFCDHNYTVEDTMHQRKRIHQLEQQVRKLRKKLKTAQQRCRRQERQLEKLKEVVHFQKEKDDVSERGYVILPNDYFEIVEVPA [E157R], the THAP1 transcriptional activity is 0.765. As to MVQSCSAYGCKNRYDKDKPVSFHKFPLTRPSLCKEWEAAVRRKNFKPTKYSSICSEHFTPDCFKRECNNKLLKENAVPTIFLCTEPHDKKEDLLEPQEQLPPPPLPPPVSQVDAAIGLLMPPLQTPVNLSVFCDHNYTVEDTMWQRKRIHQLEQQVEKLRKKLKTAQQRCRRQERQLEKLKEVVHFQKEKDDVSERGYVILPNDYFEIVEVPA [H144W], the THAP1 transcriptional activity is 0.56. As for MVQSCSAYGCKNRYDKDKPVSFHKFPLTRPSLCKEWEAAVRRKNFKPTKYSSICSEHFTPDHFKRECNNKLLKENAVPTIFLCTEPHDKKEDLLEPQEQLPPPPLPPPVSQVDAAIGLLMPPLQTPVNLSVFCDHNYTVEDTMHQRKRIHQLEQQVEKLRKKLKTAQQRCRRQERQLEKLKEVVHFQKEKDDVSERGYVILPNDYFEIVEVPA [C62H], the figure is 0.173; as for MVQSCSAYGCKNRYDKDKPVSFHKFPLTRPSLCKEWEAAVRRKNFKPTKYSSICSEHFTPDCFKRECNNKLLKENAVPTIFLCTEPHDKKEDLLEPQEQLPPPPLPPPVSQVDAAIGLLMPPLQTPVNLSVFCDHNYTVEDTMHQRKRIHQLEQQVEKLREKLKTAQQRCRRQERQLEKLKEVVHFQKEKDDVSERGYVILPNDYFEIVEVPA [K161E], 0.167; as for MVQSCSAYGWKNRYDKDKPVSFHKFPLTRPSLCKEWEAAVRRKNFKPTKYSSICSEHFTPDCFKRECNNKLLKENAVPTIFLCTEPHDKKEDLLEPQEQLPPPPLPPPVSQVDAAIGLLMPPLQTPVNLSVFCDHNYTVEDTMHQRKRIHQLEQQVEKLRKKLKTAQQRCRRQERQLEKLKEVVHFQKEKDDVSERGYVILPNDYFEIVEVPA [C10W], 0.125. For MVQSCSAYGCKNRYDKDKPVSFHKFPLTRPSLCKEWEAAVRRKNFKPTKYSSICSEHFTPDCFKRECNNKLLKENAVPTIFLCTEPHDKKEDLLEPQEQLPPPPLPPPVSQVDAAIGLLMPPLQTPVNLSVFCDHNYTVEDTMHQRKRIHQLEQQVEKLRKKLKTAQQACRRQERQLEKLKEVVHFQKEKDDVSERGYVILPNDYFEIVEVPA [R169A], the THAP1 transcriptional activity worked out at 0.297. Consider MVQSCSAYGCKNRYDKDKPVSFHKFPLTRPSLCKEWEAAVRRKNFKPTKYSSICSEHFTPDCFKRECNNKLLKENAVPTIFLCTEPHDKKEDLLEPQEQLPPPPLPPPVSQVDAAIGLLMPPLQTPVNLSVFCDHNMTVEDTMHQRKRIHQLEQQVEKLRKKLKTAQQRCRRQERQLEKLKEVVHFQKEKDDVSERGYVILPNDYFEIVEVPA [Y137M], for which the THAP1 transcriptional activity was 0.114. As for MVQSCSAYGCKNRYDKDKPVSFHKFPLTRPSLCKEWEAAVRRKNFKPTKYSSICSEHFTPDCFKRECNNKLLKENAVPTIFLCTEPHDKKEDLLEPQEQLPPPTLPPPVSQVDAAIGLLMPPLQTPVNLSVFCDHNYTVEDTMHQRKRIHQLEQQVEKLRKKLKTAQQRCRRQERQLEKLKEVVHFQKEKDDVSERGYVILPNDYFEIVEVPA [P104T], the figure is 1.39.

Regarding MVQSCSAYGCKNRYWKDKPVSFHKFPLTRPSLCKEWEAAVRRKNFKPTKYSSICSEHFTPDCFKRECNNKLLKENAVPTIFLCTEPHDKKEDLLEPQEQLPPPPLPPPVSQVDAAIGLLMPPLQTPVNLSVFCDHNYTVEDTMHQRKRIHQLEQQVEKLRKKLKTAQQRCRRQERQLEKLKEVVHFQKEKDDVSERGYVILPNDYFEIVEVPA [D15W], the THAP1 transcriptional activity came out at 0.122. As for MVQSCSAYGCKNRYDKDKPVSFHKFPLTRPSLCKEWEAAVRRKNFKPTKYSSICSEHFTPDCFKRECNNKLLKENAVPTIFLCTEPHDKKEDLLEPQEQLPPPPLPPPVSQVDAAIGLLMPPLQTPVNLSVFCDHNYTVEDTMHQRKRIHQLEQQVEKLRKKLKTAQQRCRRQERQLEKLKEVVHFQKEKDDVSERHYVILPNDYFEIVEVPA [G197H], the figure is 1.76; as for MVQSCSAYGCKNRYDKDKPVSFHKFPLTRPSLCKEWEAAVRRKNFKPTKYSSICSEHFTPDCFKRECNNKLLKENAVPTIFLCTEPHDKKEDLLEPQEQLPPPPLPPPVSQVDAAIGLLMPPLQTPVNLSVFCDHNYTVEDTMHQRKRIHQLEQQVEKLRKKLKTAQQRCRRQERQLEKDKEVVHFQKEKDDVSERGYVILPNDYFEIVEVPA [L180D], 0.256; as for MVQSCSAYGCKNRYDKDKPVSFHKFPLTRPSLCKEWEAAVRRKNFKPTKYSSICSEHFTPDCFKRECNNKLLKENAVPTIFLCTEPHDKKEDLLEPQEQLPPPPLPPPVSQVDAAIGLLMPPLQTPVNLSVFCDHNYTVEDTMHQRKRIHQLEQQVEKLRKKLKTAQQRCRRQERQLEKLKEVVHFYKEKDDVSERGYVILPNDYFEIVEVPA [Q187Y], 0.809. As for MVQSCSAYGCKNRYDKDKPVSFHKFPLTRPSLCKEWEAAVRRKNFKPTKYSSICSEHFTPDCFKRECNNKLLKENAVPTIFLCTEPHDKKEDLLEPQEQLPPPPLPPPVSQVDAAIGLLMPPLQTPVNLSVFCDHNYTVEDTMHQRKRIHQLEQQVEKLRKKLKTAQQRCRRQERQLEKLKEVVHFQKEKDDVHERGYVILPNDYFEIVEVPA [S194H], the figure is 1.2; as for MVQSCSAYGCKNRYDKDKPVSFHKFPLTRPSLCKEWEAAVRRKNFKPTKYSSICREHFTPDCFKRECNNKLLKENAVPTIFLCTEPHDKKEDLLEPQEQLPPPPLPPPVSQVDAAIGLLMPPLQTPVNLSVFCDHNYTVEDTMHQRKRIHQLEQQVEKLRKKLKTAQQRCRRQERQLEKLKEVVHFQKEKDDVSERGYVILPNDYFEIVEVPA [S55R], 0.113.

Values taken from the supplement of paper PMC11811203.
